Experimental data published in paper PMC4033772 (The Journal of Cell Biology, 2014).

Biological target: the molecule itself
Assay: SEC + other: sucrose gradient sedimentation

B1: FLAG-tagged Stu1 (natural protein, S. cerevisiae, UniProt P38198 1-1513, looked up)
chain: MSSFNNETNNNSNTNTHPDDSFPLYTVFKDESVPIEEKMALLTRFKGHVKKELVNESSIQAYFAALLFISGHYAYRSYPRLIFLSHSSLCYLIKRVAMQSPVQFNDTLVEQLLNHLIFELPNEKKFWLASIKAIEAIYLVNPSKIQAILANFLRRPSENQNGDYLNRIKSTLLTIDELIQINEKNNSNHLQLLRFFMLSFTNLLNNNLNEHANDDNNNVIIELIFDIMYKYLKMDDENSQDLIDGFINDLEVEKFKQKFISLAKSQDQHGSQEDKSTLFDEEYEFQLLLAEAKLPQLSNNLSSKDPAMKKNYESLNQLQQDLENLLAPFQSVKETEQNWKLRQSNIIELDNIISGNIPKDNPEEFVTVIKEVQLIELISRATSSLRTTLSLTALLFLKRLIHILNDQLPLSILDQIFVIFKNLLSSTKKISSQTAFHCLITLIIDINHFHNKLFQLSFLLINEKTVTPRFCSAILLRSFLIKFNDSNLSLNNSNTTSPTSKLENNIIYIEEWLKKGISDSQTTVREAMRLTFWYFYKCYPTNAKRLLSSSFSPQLKKATELAIPAHLNINYQVSRVSSTASASSATSRLYSHSSNNSSRKTSLLEQKRNYPSYAQPTQSSSTSLLNAPAVTAGGSVIASKLSNKLKTNLRSTSEYSSKENEKRARHHDSMNSVSNSNTKDNNNVTKRKVSAPPSSTAATKVSENYTNFDDFPSNQIDLTDELSNSYSNPLIKKYMDKNDVSMSSSPISLKGSNKLGEYETLYKKFNDASFPAQIKDALQYLQKELLLTSQQSSSAPKFEFPMIMKKLRQIMIKSPNDFKPFLSIEKFTNGVPLNYLIELYSINSFDYAEILKNRMNPEKPYELTNLIITIADLFNFLNANNCPNDFKLYYMKYKTTFFNYNFKLLLEIFRNLNIKHDNTLRSGTNDLMPKISMILFQIYGKEFDYTCYFNLIFEIYKFDNNRFNKLLADFDIVSTKMKICHELEKKDANFKVEDIISRESSVSFTPIDNKKSEGDEESDDAVDENDVKKCMEMTMINPFKNLETDKTLELKNNVGKRTSSTDSVVIHDDNDKDKKLSEMTKIVSVYQLDQPNPAKEEDDIDMENSQKSDLNLSEIFQNSGENTERKLKDDNEPTVKFSTDPPKIINEPEKLIGNGNENEKPDLETMSPIKINGDENMGQKQRITVKRERDVALTEQDINSKKMKLVNNKKSEKMHLLIMDNFPRDSLTVYEISHLLMVDSNGNTLMDFDVYFNHMSKAINRIKSGSFTMKHINYLIEPLITCFQNQKMTDWLTNENGFDELLDVAIMLLKSTDDTPSIPSKISSKSIILVHCLLVWKKFLNTLSENADDDGVSVRMCFEEVWEQILLMLNKFSDYGNEIYKLAQEFRDSLMLSHFFKKHSATRILSMLVTEIQPDTAGVKETFLIETLWKMLQSPTICQQFKKSNISEIIQTMSYFIMGTDNTSWNFTSAVVLARCLRVLQTTPDYTEQETERLFDCLPKNVFKMIMFIASNE
stoichiometry N: 2
